Series [1] has as its system T1, OAS1 p42 isoform (transcript variant 2), wild type (human), P00973-2.
T1 sequence: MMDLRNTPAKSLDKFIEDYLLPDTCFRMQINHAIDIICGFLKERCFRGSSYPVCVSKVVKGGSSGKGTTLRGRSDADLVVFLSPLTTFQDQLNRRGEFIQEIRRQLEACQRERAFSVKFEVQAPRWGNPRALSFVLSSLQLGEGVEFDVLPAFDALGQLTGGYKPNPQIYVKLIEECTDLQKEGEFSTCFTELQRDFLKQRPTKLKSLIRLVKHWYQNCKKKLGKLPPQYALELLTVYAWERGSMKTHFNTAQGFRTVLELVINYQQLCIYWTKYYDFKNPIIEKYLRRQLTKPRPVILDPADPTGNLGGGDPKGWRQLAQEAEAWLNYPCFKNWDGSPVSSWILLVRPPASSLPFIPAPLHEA
The series can be described thus: OAS1 activation kinetics (Kapp, PPi assay). The settings on record: pH 7.5, 10 min at room temperature (~20 C).

Another series relates to OAS1 S162G (human). The series can be described thus: OAS1 activation kinetics (Kapp, PPi assay). The note with it: pH 7.5, 10 min at room temperature (~20 C).
The target in series [2] is T2, OAS1 p42 isoform (transcript variant 2), wild type (human, UniProt P00973-2 1-364).
T2 sequence: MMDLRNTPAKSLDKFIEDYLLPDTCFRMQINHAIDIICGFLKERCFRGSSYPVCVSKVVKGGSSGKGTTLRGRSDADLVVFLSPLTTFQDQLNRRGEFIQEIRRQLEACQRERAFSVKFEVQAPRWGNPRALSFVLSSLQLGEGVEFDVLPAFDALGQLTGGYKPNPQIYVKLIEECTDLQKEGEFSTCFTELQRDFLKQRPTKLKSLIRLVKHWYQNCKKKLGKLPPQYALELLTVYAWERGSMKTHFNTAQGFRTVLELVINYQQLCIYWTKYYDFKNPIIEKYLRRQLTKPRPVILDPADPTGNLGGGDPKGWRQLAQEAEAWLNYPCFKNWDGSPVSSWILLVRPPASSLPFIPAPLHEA
The series can be described thus: OAS1 activation kinetics (Kapp NA); 400 nM OAS1; no detectable affinity; […], pH 7.5, 10 min at room temperature (~20 C); […]. The note with it: protein: recombinant; tags: none after TEV cleavage of N-terminal GNSHT tag (GB1, NusA, Streptavidin, 6xHis); label: none (SYBR Gold stain); stem loop.

The target in series [3] is T2, OAS1 p42 isoform (transcript variant …). The series can be described thus: OAS1 activation kinetics (Kapp, PPi assay); 400 nM OAS1; […], pH 7.5, 10 min at room temperature (~20 C); […]. The settings on record: protein: recombinant; tags: none after TEV cleavage of N-terminal GNSHT tag (GB1, NusA, Streptavidin, 6xHis); label: none (SYBR Gold stain); two stem loops.

With WNV SLI, the K half in series [1] was 5830 nM.
In the case of WNV SLI/II, the K half in series [1] is 528 nM.
In the case of WNV SLI/II/III, the K half in the series on OAS1 S162G (human) came to 1490 nM; in series [1], 1450 nM.
For the molecule GCUGUUUCUUAGCACGAAGAUCUCGAUGUCUAAGAAACC (structured_RNA) [WNV SLII], in series [2], the binding result is recorded as “no binding”.
With AGGAGGGCCCGGCAAGAGCCGGGCUGUCAAUAUGCU (structured_RNA) [WNV SLIII], the binding result in series [2] is “no binding”.

B1: WNV SLII/III (structured_RNA)
RNA: GCUGUUUCUUAGCACGAAGAUCUCGAUGUCUAAGAAACCAGGAGGGCCCGGCAAGAGCCGGGCUGUCAAUAUGCU
B1: the “apparent K (half saturation)” value in series [3] came out at 5.78 ± 0.452 µM.

(Values after publication PMC3961380, “Activation of 2′ 5′-Oligoadenylate Synthetase by Stem Loops at the 5′-End of the West Nile Virus Genome”.)
